Literature values in patent US20060234934A1, “Composition and Method for Selective Cytostasis” (priority 2005, published 2006).

System: human embryonic palatal mesenchymal cells

B1: EGF: Epidermal Growth Factor (protein, UniProt P01133 23-1207, looked up)
Pro-epidermal growth factor: PQHWSCPEGTLAGNGNSTCVGPAPFLIFSHGNSIFRIDTEGTNYEQLVVDAGVSVIMDFHYNEKRIYWVDLERQLLQRVFLNGSRQERVCNIEKNVSGMAINWINEEVIWSNQQEGIITVTDMKGNNSHILLSALKYPANVAVDPVERFIFWSSEVAGSLYRADLDGVGVKALLETSEKITAVSLDVLDKRLFWIQYNREGSNSLICSCDYDGGSVHISKHPTQHNLFAMSLFGDRIFYSTWKMKTIWIANKHTGKDMVRINLHSSFVPLGELKVVHPLAQPKAEDDTWEPEQKLCKLRKGNCSSTVCGQDLQSHLCMCAEGYALSRDRKYCEDVNECAFWNHGCTLGCKNTPGSYYCTCPVGFVLLPDGKRCHQLVSCPRNVSECSHDCVLTSEGPLCFCPEGSVLERDGKTCSGCSSPDNGGCSQLCVPLSPVSWECDCFPGYDLQLDEKSCAASGPQPFLLFANSQDIRHMHFDGTDYGTLLSQQMGMVYALDHDPVENKIYFAHTALKWIERANMDGSQRERLIEEGVDVPEGLAVDWIGRRFYWTDRGKSLIGRSDLNGKRSKIITKENISQPRGIAVHPMAKRLFWTDTGINPRIESSSLQGLGRLVIASSDLIWPSGITIDFLTDKLYWCDAKQSVIEMANLDGSKRRRLTQNDVGHPFAVAVFEDYVWFSDWAMPSVMRVNKRTGKDRVRLQGSMLKPSSLVVVHPLAKPGADPCLYQNGGCEHICKKRLGTAWCSCREGFMKASDGKTCLALDGHQLLAGGEVDLKNQVTPLDILSKTRVSEDNITESQHMLVAEIMVSDQDDCAPVGCSMYARCISEGEDATCQCLKGFAGDGKLCSDIDECEMGVPVCPPASSKCINTEGGYVCRCSEGYQGDGIHCLDIDECQLGEHSCGENASCTNTEGGYTCMCAGRLSEPGLICPDSTPPPHLREDDHHYSVRNSDSECPLSHDGYCLHDGVCMYIEALDKYACNCVVGYIGERCQYRDLKWWELRHAGHGQQQKVIVVAVCVVVLVMLLLLSLWGAHYYRTQKLLSKNPKNPYEESSRDVRSRRPADTEDGMSSCPQPWFVVIKEHQDLKNGGQPVAGEDGQAADGSMQPTSWRQEPQLCGMGTEQGCWIPVSSDKGSCPQVMERSFHMPSYGTQTLEGGVEKPHSLLSANPLWQQRALDPPHQMELTQ
modifications: Pro-epidermal growth factor
- stimulation of incorporation of 3[H]-thymidine into newly synthesized DNA: a little more than twofold
